The record followed here is US5780289.

In the assay the target is E. acervulina merozoite antigen (whole merozoites coated on the plate, or sonicated merozoites).

For the substance “peripheral blood leucocytes of chickens immunised with purified Eam100 (cells without a defined receptor)”, the 3H-thymidine incorporation in Dcpm amounted to 1190 Dcpm. For “peripheral blood leucocytes of chickens immunised with purified Eam45 (cells without a defined receptor)”, the 3H-thymidine incorporation in Dcpm was 716 Dcpm. With “peripheral blood leucocytes of chickens immunised with purified Eam20 (cells without a defined receptor)” the figure was 922 Dcpm; with “peripheral blood leucocytes of chickens immunised with purified Eam200 (cells without a defined receptor)”, 692 Dcpm; with “peripheral blood leucocytes of control chickens (cells without a defined receptor)”, 14 Dcpm.
